From article PMC5777261 (The Journal of Biological Chemistry, 2017) come the findings set out here.

Holding throughout (assay): radioligand binding; HEK293 cells expressing ACKR3-YFP or mutants, pretreated 5 min at 37 °C with 100 μM phenylarsine oxide; 50 pM 125I-CXCL12 tracer in 50 mM HEPES pH 7.4, 5 mM MgCl2, 1 mM CaCl2, 0.2% BSA, with or without unlabeled CXCL12 or CXCL11, 30 min at 37 °C; bound label counted in a γ counter; IC50 taken as proxy for ligand affinity
In test [1] the target is ACKR3 Y315A-YFP (UniProt P25106).
Test [2] deals with ACKR3 N127D-YFP (UniProt P25106).
Test [3] concerns the target ACKR3 D141N-YFP (UniProt P25106).
For test [4], the target named is ACKR3 Y143A-YFP (UniProt P25106).
Test [5] concerns the target ACKR3 D90N-YFP (UniProt P25106).
In test [6] the target is ACKR3 N127S-YFP (UniProt P25106).
The target in test [7] is ACKR3-YFP (wildtype ACKR3 fused C-terminally to YFP) (UniProt P25106).
The target in test [8] is ACKR3 N127K-YFP (UniProt P25106).
Test [9] has as its target ACKR3 R142A-YFP (UniProt P25106).

Chain of ACKR3 R142A-YFP (P25106 whole entry R142A): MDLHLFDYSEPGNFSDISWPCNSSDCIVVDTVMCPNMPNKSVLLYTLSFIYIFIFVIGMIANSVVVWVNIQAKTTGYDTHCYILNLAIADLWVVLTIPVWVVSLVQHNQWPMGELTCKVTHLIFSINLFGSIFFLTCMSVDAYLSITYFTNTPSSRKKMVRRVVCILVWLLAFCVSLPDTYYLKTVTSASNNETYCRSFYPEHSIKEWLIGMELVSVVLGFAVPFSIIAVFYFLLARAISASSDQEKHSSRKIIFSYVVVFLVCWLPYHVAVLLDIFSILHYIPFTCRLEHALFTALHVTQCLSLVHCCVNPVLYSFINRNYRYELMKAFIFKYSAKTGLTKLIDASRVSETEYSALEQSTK
Chain of ACKR3-YFP (wildtype ACKR3 fused C-terminally to YFP) (P25106 whole entry, the tested form may be a part): as the sequence (P25106 whole entry R142A) above, with A142R counted along it
Chain of ACKR3 D90N-YFP (P25106 whole entry D90N): as the sequence (P25106 whole entry R142A) above, with D90N, A142R counted along it
Chain of ACKR3 N127K-YFP (P25106 whole entry N127K): as the sequence (P25106 whole entry R142A) above, with N127K, A142R counted along it
Chain of ACKR3 Y315A-YFP (P25106 whole entry Y315A): as the sequence (P25106 whole entry R142A) above, with A142R, Y315A counted along it
Chain of ^125I-CXCL12 radiolabel tracer (P48061 22-93): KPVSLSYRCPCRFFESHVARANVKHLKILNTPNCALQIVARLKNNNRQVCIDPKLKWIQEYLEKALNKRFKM
Chain of CXCL12 (unlabeled recombinant chemokine) (P48061 22-93): as above
Chain of ACKR3 Y143A-YFP (P25106 whole entry Y143A): as the sequence (P25106 whole entry R142A) above, with A142R, Y143A counted along it
Chain of ACKR3 N127D-YFP (P25106 whole entry N127D): as the sequence (P25106 whole entry R142A) above, with N127D, A142R counted along it
Chain of ACKR3 N127S-YFP (P25106 whole entry N127S, the tested form may be a part): as the sequence (P25106 whole entry R142A) above, with N127S, A142R counted along it
Chain of ACKR3 D141N-YFP (P25106 whole entry D141N): as the sequence (P25106 whole entry R142A) above, with D141N, A142R counted along it

By IC50 is commonly meant the midpoint of a concentration-inhibition curve. As to “CXCL12 (unlabeled recombinant chemokine) (from UniProt P48061 22-93) (ligand)”, the IC50 came to 24.7 nM in test [1]; 10.9 nM in test [2]; 3 nM in test [4]; 12.1 nM in test [5]; 1.7 nM in test [6]; 5.9 nM in test [7]. For the same substance, the IC50 worked out at 9.9 nM in test [8] and 45.1 nM in test [9]. Also, the Log IC50 in [1] was -7.7; in test [2] it was -8.2; in test [3], -9.1; in [4], -8.5; in test [5] it was -7.9; in test [6], -8.8. Besides, the Log IC50 in [7] was -8.2; in test [8], -8.1; in test [9], -7.4.

On to “^125I-CXCL12 radiolabel tracer (from UniProt P48061 22-93) (ligand)”, for which the 125I-CXCL12 tracer binding, % of ACKR3 (the pair that is blocked) turned out to be 69% in test [1]; 70% in [2]; 64% in test [3]; 93% in test [4]; 92% in [5]; 87% in test [6]. For the same substance, the figures for the 125I-CXCL12 tracer binding, % of ACKR3 (the pair that is blocked) in test [7], in [8] and in test [9] were 100%, 83% and 66%, respectively.
